Tests used:
hG6PD promoter = assay: NHR-promoter luciferase screen, hG6PD promoter; assay type: cell-based, human; details: for Luc. act., normalized to lacZ / Normalized Luc. act., normalized to control: G6PD promoter reporter, co-transfected HR, without or with its ligand; for Normalized Luc. act., normalized to control: relative to control; for luciferase activity normalized to lacZ activity and to a control, hG6PD: hG6PD promoter-luciferase, CV-1 cells, NHR +/- ligand, control = 1.00
Method in brief: (§1)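 CV-1 cells were co-transfected with 50 ng NHR (homodimer or NHR/RXR heterodimer), 100 ng promoter-luciferase construct and 50 ng LacZ. Luciferase was normalized to LacZ and to a no-NHR/no-ligand control.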

hTNFa promoter = assay: NHR-promoter luciferase screen, hTNFa promoter; assay type: cell-based, human; details: for Luc. act., normalized to lacZ / Normalized Luc. act., normalized to control: TNFa promoter, HR component without or with ligand; for hTNFa promoter reporter activity: transcription factor +/- ligand, control = 1.00
Method in brief: as §1

hIRF7 promoter = assay: NHR-promoter luciferase screen, hIRF7 promoter; assay type: cell-based, human; details: for Normalized Luc. act., normalized to control / Luc. act., normalized to lacZ: IRF7 promoter reporter; for Normalized Luc. act., normalized to control: HR without or with its ligand, relative to control; for Luc. act., normalized to lacZ: hormone receptor (HR) without or with its ligand; for hIRF7 promoter reporter activity: transcription factor +/- ligand, control = 1.00
Method in brief: as §1

mUCP2 promoter = assay: NHR-promoter luciferase screen, mUCP2 promoter; assay type: cell-based, mouse; details: for Luc. act., normalized to lacZ / Normalized Luc. act., normalized to control: mUCP2 promoter reporter, co-transfected HR, with or without its ligand; for Normalized Luc. act., normalized to control: relative to control; for luciferase activity normalized to lacZ activity and to a control, mUCP2: mUCP2 promoter-luciferase, CV-1 cells, NHR +/- ligand, control = 1.00
Method in brief: as §1

RevErba promoter = assay: NHR-promoter luciferase screen, RevErba (RVRa) promoter; assay type: cell-based; parameters: key to mRevErba promoter reporter activity / Normalized Luc. act., normalized to control: luciferase activity normalized to lacZ and to control (no NHR/ligand); details: for Luc. act., normalized to lacZ / Normalized Luc. act., normalized to control / negative reciprocal of normalized Luc. act. (fold repression; Table 33) / normalized Luc. act. on a logarithmic scale (column without head, Table 33): RVRa promoter; for Luc. act., normalized to lacZ / Normalized Luc. act., normalized to control: HR component without or with ligand; for negative reciprocal of normalized Luc. act. (fold repression; Table 33): given only where activity is below control; for normalized Luc. act. on a logarithmic scale (column without head, Table 33): log10 of activity normalized to control; for mRevErba promoter reporter activity: transcription factor +/- ligand, control = 1.00
Method in brief: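 Reporter readout: RevErbα promoter-driven luciferase, corrected for LacZ transfection efficiency and expressed relative to a no-receptor or no-ligand control. Receptors (V5H6-tagged, pcDNA3.1), alone or with RXR, plus any ligand, were expressed in CV-1 cells.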

hCYP3A4 promoter = assay: NHR-promoter luciferase screen, hCYP3A4 promoter; assay type: cell-based, human; details: for Luc. act., normalized to lacZ / Normalized Luc. act., normalized to control: CYP3A4 promoter, HR/ligand component; for hCYP3A4 promoter reporter activity: transcription factor +/- ligand, control = 1.00
Method in brief: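 Luciferase reporter read-out after co-expression in CV-1 cells of V5H6-tagged receptor (alone or with RXR), the promoter construct and LacZ. Values are luciferase/LacZ relative to a control lacking NHR or ligand; orphan receptors tested ligand-free.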

Molecule	Luc. act., normalized to lacZ (hG6PD promoter)	Normalized Luc. act., normalized to control (hG6PD promoter)	luciferase activity normalized to lacZ activity and to a control, hG6PD (hG6PD promoter)	Luc. act., normalized to lacZ (hTNFa promoter)	Normalized Luc. act., normalized to control (hTNFa promoter)	hTNFa promoter reporter activity (hTNFa promoter)	Normalized Luc. act., normalized to control (hIRF7 promoter)	Luc. act., normalized to lacZ (hIRF7 promoter)	hIRF7 promoter reporter activity (hIRF7 promoter)	Luc. act., normalized to lacZ (mUCP2 promoter)	Normalized Luc. act., normalized to control (mUCP2 promoter)	luciferase activity normalized to lacZ activity and to a control, mUCP2 (mUCP2 promoter)	Luc. act., normalized to lacZ (RevErba promoter)	Normalized Luc. act., normalized to control (RevErba promoter)	negative reciprocal of normalized Luc. act. (fold repression; Table 33) (RevErba promoter)	normalized Luc. act. on a logarithmic scale (column without head, Table 33) (RevErba promoter)	mRevErba promoter reporter activity (RevErba promoter)	Luc. act., normalized to lacZ (hCYP3A4 promoter)	Normalized Luc. act., normalized to control (hCYP3A4 promoter)	hCYP3A4 promoter reporter activity (hCYP3A4 promoter)
RVRa: Rev-Erb α (NR1D1), cDNA driver (protein, UniProt P20393 1-614, looked up) Nuclear receptor subfamily 1 …: MTTLDSNNNTGGVITYIGSSGSSPSRTSPESLYSDNSNGSFQSLTQGCPTYFPPSPTGSLTQDPARSFGSIPPSLSDDGSPSSSSSSSSSSSSFYNGSPPGSLQVAMEDSSRVSPSKSTSNITKLNGMVLLCKVCGDVASGFHYGVHACEGCKGFFRRSIQQNIQYKRCLKNENCSIVRINRNRCQQCRFKKCLSVGMSRDAVRFGRIPKREKQRMLAEMQSAMNLANNQLSSQCPLETSPTQHPTPGPMGPSPPPAPVPSPLVGFSQFPQQLTPPRSPSPEPTVEDVISQVARAHREIFTYAHDKLGSSPGNFNANHASGSPPATTPHRWENQGCPPAPNDNNTLAAQRHNEALNGLRQAPSSYPPTWPPGPAHHSCHQSNSNGHRLCPTHVYAAPEGKAPANSPRQGNSKNVLLACPMNMYPHGRSGRTVQEIWEDFSMSFTPAVREVVEFAKHIPGFRDLSQHDQVTLLKAGTFEVLMVRFASLFNVKDQTVMFLSRTTYSLQELGAMGMGDLLSAMFDFSEKLNSLALTEEELGLFTAVVLVSADRSGMENSASVEQLQETLLRALRALVLKNRPLETSRFTKLLLKLPDLRTLNNMHSEKLLSFRVDAQ	45.9	1.2	1.23	1069.4	1.1	1.09	1.2	32.6	1.24	143.0	1.3	1.30	9.76	0.3	−2.865	−0.46	0.35	2.2	0.5	0.50
RVRb: Rev-Erb β (NR1D2, alternative name RVR), cDNA driver (protein, UniProt Q14995 1-579, looked up) Nuclear receptor subfamily 1 …: MEVNAGGVIAYISSSSSASSPASCHSEGSENSFQSSSSSVPSSPNSSNSDTNGNPKNGDLANIEGILKNDRIDCSMKTSKSSAPGMTKSHSGVTKFSGMVLLCKVCGDVASGFHYGVHACEGCKGFFRRSIQQNIQYKKCLKNENCSIMRMNRNRCQQCRFKKCLSVGMSRDAVRFGRIPKREKQRMLIEMQSAMKTMMNSQFSGHLQNDTLVEHHEQTALPAQEQLRPKPQLEQENIKSSSPPSSDFAKEEVIGMVTRAHKDTFMYNQEQQENSAESMQPQRGERIPKNMEQYNLNHDHCGNGLSSHFPCSESQQHLNGQFKGRNIMHYPNGHAICIANGHCMNFSNAYTQRVCDRVPIDGFSQNENKNSYLCNTGGRMHLVCPMSKSPYVDPHKSGHEIWEEFSMSFTPAVKEVVEFAKRIPGFRDLSQHDQVNLLKAGTFEVLMVRFASLFDAKERTVTFLSGKKYSVDDLHSMGAGDLLNSMFEFSEKLNALQLSDEEMSLFTAVVLVSADRSGIENVNSVEALQETLIRALRTLIMKNHPNEASIFTKLLLKLPDLRSLNNMHSEELLAFKVHP	55.5	1.5	1.48	1017.6	1.0	1.04	1.9	50.4	1.91	174.4	1.6	1.59	2.06	0.1	−13.5606	−1.13	0.07	4.5	1.0	1.01

Reference: patent US20110263454A1, “Methods of Identifying Functional Characteristics of Promoters, Transcription Modifying Proteins and Transcription Modulating Agents” (Salk Institute for Biological Studies, priority 2008, published 2011)
